Substitutions are numbered along the chain they refer to. Blank lines part the entries; values can stand above or below the binder they belong to.
What was measured:
[1] = target: T1, human DLL4 on the cell surface (human, UniProt Q9NR61 27-685); assay: FACS on DLL4 cells
T1 construct: whole, on cells; also called HEK293-hDLL4; hDLL4-293G

[2] = target: T2, mouse DLL4 on the cell surface (mouse, UniProt Q9JI71 27-686); assay: FACS on DLL4 cells
T2 construct: whole, on cells; also called HEK293-mDLL4; mDLL4-293G

[3] = target: T3, mouse DLL4 extracellular domain (mouse, UniProt Q9JI71 27-532); assay: Biacore SPR;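 note: surface plasmon resonance on a Biacore instrument, antibodies captured on immobilized anti-human Fc, purified recombinant DLL4 extracellular domain injected as analyte, binding followed over time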
T3 construct: extracellular domain; also called muDLL4 ECD; Mouse DLL4 ECD
Protocol: (§1) Binding of DLL4 antibodies to a purified recombinant DLL4 extracellular domain is determined by surface plasmon resonance-based measurements with a Biacore® instrument (either a Biacore 2000, Biacore 3000, or Biacore T100, GE Healthcare, Piscataway, N.J. US) using running buffer HBS-EPB (10 mM HEPES [pH 7.4], 150 mM NaCl, 3 mM EDTA, 0.1 mg/ml BSA and 0.005% surfactant P20) at 25° C. For example, approximately 9000 RU of goat anti-human Fc specific polyclonal antibody (Thermo Fisher Scientific Inc., Rockford, Ill., US) diluted in 10 mM sodium acetate (pH 4.5) is directly immobilized across a CM5 research grade biosensor chip using a standard amine coupling kit according to manufacturer's instructions and procedures at 25 μg/ml. Unreacted moieties on the biosensor surface are blocked with ethanolamine. For kinetic analysis, rate equations derived from the 1:1 Langmuir binding model are fitted simultaneously to multiple antigen injections (using global fit analysis) with the use of Scrubber 2 (BioLogic Software). […] The equilibrium dissociation constant KD (M) of the reaction between antibodies and the target antigen is then calculated from the kinetic rate constants by the following formula: KD=Koff/Kₒₙ. Binding is recorded as a function of time and kinetic rate constants are calculated. In this assay, on-rates as fast as 10⁶ M⁻¹s⁻¹ and off-rates as slow as 10⁻⁶ s⁻¹ can be measured.

[4] = target: T4, human DLL4 extracellular domain (human, UniProt Q9NR61 27-529); assay: Biacore SPR;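 note: surface plasmon resonance on a Biacore instrument, antibodies captured on immobilized anti-human Fc, purified recombinant DLL4 extracellular domain injected as analyte, binding followed over time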
T4 construct: extracellular domain; coated on plates in the sVEGFR1 assay; also called huDLL4 ECD; Human DLL4 ECD
Protocol: as §1

[5] = target: T1, human DLL4 on the cell surface; assay: competition FACS, competitor huNotch-1;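 note: stable cell lines displaying human or mouse DLL4 on their surface, Notch binding detected by flow cytometry via R-phycoerythrin streptavidin fluorescence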
Protocol: (§2) Notch blocking assay: Briefly, stable cell lines overexpressing cell-surface DLL4 were harvested from tissue culture flasks and re-suspended in phosphate buffered saline (PBS) containing 1% bovine serum albumin and 1 mM CaCl₂ (FACS buffer). HEK293-hDLL4 or HEK293-mDLL4 cells were dispensed into 96-well plate (v-bottom) at 1.5×10⁵ cells/well in FACS buffer. […] After washing the cells two times with FACS buffer, 50 μL of R-phycoerythrin-conjugated streptavidin (1:150 dilution in FACS buffer) (Jackson ImmunoResearch, West Grove, Pa., US, catalog no. 016-110-084) were added. Following an incubation on ice (4° C., 60 minutes), cells were washed three times and resuspended in FACS buffer. Fluorescence was measured using a Becton Dickinson FACSCalibur-HTS (Becton Dickinson, San Jose. Calif.).

[6] = target: T2, mouse DLL4 on the cell surface; assay: competition FACS, competitor huNotch-1;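 note: stable cell lines displaying human or mouse DLL4 on their surface, Notch binding detected by flow cytometry via R-phycoerythrin streptavidin fluorescence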
Protocol: as §2

[7] = target: T1, human DLL4 on the cell surface; assay: cell-based or functional assay

T2 sequence (Q9JI71 27-686): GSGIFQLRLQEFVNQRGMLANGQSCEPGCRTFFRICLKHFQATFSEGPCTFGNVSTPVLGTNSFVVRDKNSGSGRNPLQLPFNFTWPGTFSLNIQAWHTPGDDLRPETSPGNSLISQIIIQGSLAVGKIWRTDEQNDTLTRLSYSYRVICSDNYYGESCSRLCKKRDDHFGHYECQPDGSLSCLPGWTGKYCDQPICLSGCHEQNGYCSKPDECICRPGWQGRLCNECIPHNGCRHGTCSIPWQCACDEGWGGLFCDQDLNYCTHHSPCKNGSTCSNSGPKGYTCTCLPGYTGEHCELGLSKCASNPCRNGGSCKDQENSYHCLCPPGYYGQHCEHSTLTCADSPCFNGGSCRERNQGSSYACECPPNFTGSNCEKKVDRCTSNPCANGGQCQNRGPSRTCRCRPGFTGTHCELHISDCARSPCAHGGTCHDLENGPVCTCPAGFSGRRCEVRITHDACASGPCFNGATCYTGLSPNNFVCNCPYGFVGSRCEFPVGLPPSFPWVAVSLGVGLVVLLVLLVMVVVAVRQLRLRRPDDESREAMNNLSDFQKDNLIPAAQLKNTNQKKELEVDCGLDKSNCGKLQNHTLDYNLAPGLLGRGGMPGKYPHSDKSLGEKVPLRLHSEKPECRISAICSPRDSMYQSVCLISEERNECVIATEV
T3 sequence (Q9JI71 27-532): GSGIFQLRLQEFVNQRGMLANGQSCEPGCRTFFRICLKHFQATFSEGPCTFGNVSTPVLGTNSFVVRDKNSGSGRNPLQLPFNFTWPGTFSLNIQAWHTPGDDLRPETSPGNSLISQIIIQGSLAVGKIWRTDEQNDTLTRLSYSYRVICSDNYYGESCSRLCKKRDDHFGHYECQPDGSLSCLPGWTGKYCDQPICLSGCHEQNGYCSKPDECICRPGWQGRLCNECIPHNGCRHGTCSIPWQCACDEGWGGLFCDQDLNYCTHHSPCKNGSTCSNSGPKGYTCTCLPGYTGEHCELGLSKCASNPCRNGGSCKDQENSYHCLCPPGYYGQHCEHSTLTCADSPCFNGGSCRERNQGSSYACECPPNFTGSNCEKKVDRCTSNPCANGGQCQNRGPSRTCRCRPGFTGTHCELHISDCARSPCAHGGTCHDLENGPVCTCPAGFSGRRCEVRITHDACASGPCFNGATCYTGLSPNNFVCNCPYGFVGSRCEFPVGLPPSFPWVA

- EC50 [1]: 1.63 nM
- EC50 [2]: 0.63 nM
- Kd [3]: 1.12 nM
- koff [3]: 6.01e-05 s⁻¹
- kon [3]: 53800 M⁻¹ s⁻¹
- Kd [4]: 0.58 nM
- koff [4]: 3.31e-05 s⁻¹
- kon [4]: 56700 M⁻¹ s⁻¹
- IC50 [5]: 4.3 nM
- IC50 [6]: 0.3 nM
B1: E9.4 (antibody, V domains shown)
VH: EVQLQESGPGLVKPSETLSLTCTVSGGSISSSSYYWGWIRQPPGKGLEWIGDIYYTGSTYYNPSLKSRVTISVDTSKNQFSLKLSSVTAADTAVYYCARYDVSLGGSSDHWGQGTLVTVSS
VL: SYELTQPPSVSVSPGQTASITCSGQRLGDKYASWYQQKPGQSPVLVIYEDSKRPSGIPERFSGSNSGDTATLTISGTQPMDEADYYCQAWDRDTGVFGYGTKVTVL
notes: also called DLL4-E9-4 hIgG1/L

- EC50 [1]: 3.52 nM
- EC50 [2]: 0.82 nM
- Kd [3]: 0.34 nM
- koff [3]: 2.23e-05 s⁻¹
- kon [3]: 65300 M⁻¹ s⁻¹
- Kd [4]: 0.57 nM
- koff [4]: 5.9e-05 s⁻¹
- kon [4]: 104000 M⁻¹ s⁻¹
- IC50 [5]: 5.65 nM
- IC50 [6]: 0.6 nM
B2: E9.10H (antibody, V domains shown)
VH: B1 VH with S33G, S58N, S67N, Y100E, D101E, S103I, S107G, S108A, H110Q
VL: SYELTQPPSVSVSPGQTASITCSGESLGDKYVSWYQQKPGQSPVLVIYEDSKRPSGIPERFSGSNSGDTATLTISGTQAMDEADYYCQAWDGETGVFGSGTKVT

- EC50 [1]: 2.65 nM
- EC50 [2]: 0.37 nM
- Kd [4]: 0.05 nM
- koff [4]: 1.16e-05 s⁻¹
- kon [4]: 218000 M⁻¹ s⁻¹
- IC50 [5]: 6.55 nM
- IC50 [6]: 0.65 nM
B3: E9.1F (antibody, V domains shown)
VH: B1 VH with S32G, Y54N, T56I, Y100E, D101A, L104F, S107G, S108A, H110S
VL: B1 VL with Q25D, A32V, K52Q, P79A, R92M, D93E, T94A, Y99S
notes: also called E9.IF

- Inhibition of Notch activation via huDLL4 cells, coculture (IC50, nM) [7]: 0.65 nM
B4: E9.71(M)-3 (antibody, human IgG1, V domains shown)
VH: B1 VH with Y100Q, D101A, V102L, S103A, L104M, S107G, H110K
VL: YELTQPPSVSVSPGQTASITCSGQRLGDKYASWYQQKPGQSPVLVIYEDSKRPSGIPERFSGSNSGDTATLTISGTQPMDEADYYCQAWDRDTGVFGGGTKLTVLG

- EC50 [1]: 3.34 nM
- EC50 [2]: 0.71 nM
- Kd [3]: 0.18 nM
- koff [3]: 1.47e-05 s⁻¹
- kon [3]: 83500 M⁻¹ s⁻¹
- Kd [4]: 0.02 nM
- koff [4]: 3.1e-06 s⁻¹
- kon [4]: 151000 M⁻¹ s⁻¹
- IC50 [5]: 4.44 nM
- IC50 [6]: 0.37 nM
B5: E9.12B (antibody, V domains shown)
VH: B1 VH with S33N, Y100E, D101A, L104F, S107G, S108A, H110S
VL: B2 VL with E25D, S26G, K52T, A79P, G92S, T94S

- EC50 [1]: 2.7 nM
- EC50 [2]: 0.89 nM
- Kd [3]: 0.02 nM
- koff [3]: 2e-06 s⁻¹
- kon [3]: 89000 M⁻¹ s⁻¹
- Kd [4]: 0.04 nM
- koff [4]: 6e-06 s⁻¹
- kon [4]: 150000 M⁻¹ s⁻¹
- IC50 [5]: 3.76 nM
- IC50 [6]: 0.34 nM
B6: E9.5E (antibody, V domains shown)
VH: B1 VH with Y54N, T56I, Y100E, D101S, S103P, S107G, S108A, H110E
VL: B2 VL with E25D, S26M, K52Q, A79P, G92S

- EC50 [1]: 0.27 nM
- EC50 [2]: 0.29 nM
- IC50 [5]: 2.12 nM
- IC50 [6]: 0.18 nM
B7: E9.71(M) (antibody, human IgG1, V domains shown)
VH: B1 VH with Y100Q, D101A, V102L, S103A, L104M, S107G, H110K
VL: SYELTQPPSVSVSPGQTASITCSGQRLGDKYASWYQQKPGQSPVLVIYEDSKRPSGIPERFSGSNSGDTATLTISGTQPMDEADYYCQAWDRDTGVFGGGTKLTVLG

- Kd [3]: 2.53 nM
- koff [3]: 4.17e-05 s⁻¹
- kon [3]: 16500 M⁻¹ s⁻¹
- Kd [4]: 6.92 nM
- koff [4]: 7.59e-05 s⁻¹
- kon [4]: 11000 M⁻¹ s⁻¹
- IC50 [5]: 9.12 nM
- IC50 [6]: 1.3 nM
B8: E9.48 (antibody, V domains shown)
VH: B1 VH with S33G, Y54N, T56R, Y100E, S103I, G105R, S107G, H110Y
VL: B1 VL
notes: also called DLL4-E9-48 hIgG1/L

- EC50 [1]: 34.3 nM
- EC50 [2]: 37.4 nM
- Kd [3]: 3.5 nM
- koff [3]: 0.000133 s⁻¹
- kon [3]: 37800 M⁻¹ s⁻¹
- Kd [4]: 8.46 nM
- koff [4]: 0.000331 s⁻¹
- kon [4]: 39100 M⁻¹ s⁻¹
- IC50 [5]: 21.1 nM
- IC50 [6]: 2.63 nM
B9: E9.22 (antibody, V domains shown)
VH: B1 VH with S31N, S33R, Y35H, S67G, Y100E, S103I, G105R, S107G, H110Y
VL: B1 VL
notes: also called DLL4-E9-22 hIgG1/L

- Kd [3]: 5.27 nM
- koff [3]: 0.000136 s⁻¹
- kon [3]: 25700 M⁻¹ s⁻¹
- Kd [4]: 14 nM
- koff [4]: 0.000363 s⁻¹
- kon [4]: 25900 M⁻¹ s⁻¹
B10: E9.65 (antibody, V domains shown)
VH: B1 VH with S30R, S31N, S33R, Y35H, S67G, Y100E, S103I, G105R, S107G, H110Y
VL: B1 VL

- Kd [3]: 3.49 nM
- koff [3]: 0.000136 s⁻¹
- kon [3]: 38900 M⁻¹ s⁻¹
- Kd [4]: 9.14 nM
- koff [4]: 0.000365 s⁻¹
- kon [4]: 39900 M⁻¹ s⁻¹
B11: E9.14 (antibody, V domains shown)
VH: B1 VH with S31N, S33R, Y35H, P42S, A90E, Y100E, S103I, G105R, S107G, H110Y
VL: B1 VL
notes: also called DLL4-E9-14 hIgG1/L

- Kd [3]: 0.73 nM
- koff [3]: 1.68e-05 s⁻¹
- kon [3]: 23200 M⁻¹ s⁻¹
- Kd [4]: 1.18 nM
- koff [4]: 1.84e-05 s⁻¹
- kon [4]: 15700 M⁻¹ s⁻¹
B12: E9.18 (antibody, V domains shown)
VH: B1 VH with S33G, Y54N, T56A, Y100E, S103I, G105R, S107G, H110Y
VL: B1 VL
notes: also called DLL4-E9-18 hIgG1/L

- EC50 [1]: 1.66 nM
- EC50 [2]: 0.13 nM
- Kd [3]: 9.27 nM
- koff [3]: 0.000171 s⁻¹
- kon [3]: 18400 M⁻¹ s⁻¹
- Kd [4]: 2.75 nM
- koff [4]: 3.48e-05 s⁻¹
- kon [4]: 12700 M⁻¹ s⁻¹
- IC50 [5]: 7.76 nM
- IC50 [6]: 1.2 nM
B13: E9.38 (antibody, V domains shown)
VH: B1 VH with Y100E, S103I, G105R, S107G, H110Y
VL: B1 VL with A32V, T94V, Y99S
notes: also called DLL4-E9-38 hIgG1/L

- Kd [3]: 4.89 nM
- koff [3]: 0.000212 s⁻¹
- kon [3]: 43400 M⁻¹ s⁻¹
- Kd [4]: 1.33 nM
- koff [4]: 4.97e-05 s⁻¹
- kon [4]: 37400 M⁻¹ s⁻¹
B14: E9.13 (antibody, V domains shown)
VH: B1 VH with Y100E, S103I, G105R, S107G, H110Y
VL: B1 VL with Q25D, R26T, A32V, K52E, R92S, D93E, Y99S
notes: also called DLL4-E9-13 hIgG1/L

- EC50 [1]: 4.46 nM
- EC50 [2]: 1.45 nM
- Kd [3]: 0.5 nM
- koff [3]: 1.39e-05 s⁻¹
- kon [3]: 27700 M⁻¹ s⁻¹
- Kd [4]: 0.48 nM
- koff [4]: 1.74e-05 s⁻¹
- kon [4]: 36300 M⁻¹ s⁻¹
- IC50 [5]: 14.8 nM
- IC50 [6]: 2.06 nM
B15: E9.11 (antibody, V domains shown)
VH: B1 VH with Y100E, D101A, S103P, S107G, H110Y
VL: B1 VL
notes: also called DLL4-E9-11 hIgG1/L

- EC50 [1]: 8 nM
- EC50 [2]: 2.57 nM
- Kd [3]: 0.38 nM
- koff [3]: 1.41e-05 s⁻¹
- kon [3]: 37000 M⁻¹ s⁻¹
- Kd [4]: 0.1 nM
- koff [4]: 4.4e-06 s⁻¹
- kon [4]: 43900 M⁻¹ s⁻¹
- Inhibition of Notch activation via huDLL4 cells, coculture (IC50, nM) [7]: 1 nM
- IC50 [5]: 19.8 nM
B16: E9.17 (antibody, V domains shown)
VH: B1 VH with Y100E, D101E, V102A, S103I, S107G, H110Y
VL: B1 VL
notes: also called DLL4-E9-17 hIgG1/L

- EC50 [1]: 2.02 nM
- EC50 [2]: 0.7 nM
- Kd [3]: 0.5 nM
- koff [3]: 1.44e-05 s⁻¹
- kon [3]: 28900 M⁻¹ s⁻¹
- Kd [4]: 0.078 nM
- koff [4]: 2.5e-06 s⁻¹
- kon [4]: 32600 M⁻¹ s⁻¹
- IC50 [5]: 5.03 nM
- IC50 [6]: 0.99 nM
B17: E9.66 (antibody, V domains shown)
VH: B1 VH with Y100E, D101G, S103P, S107G, S108A, H110K
VL: B1 VL
notes: also called DLL4-E9-66 hIgG1/L

- EC50 [1]: 5.1 nM
- EC50 [2]: 1.19 nM
- Kd [3]: 0.62 nM
- koff [3]: 9.41e-05 s⁻¹
- kon [3]: 151000 M⁻¹ s⁻¹
- Kd [4]: 0.21 nM
- koff [4]: 4.62e-05 s⁻¹
- kon [4]: 218000 M⁻¹ s⁻¹
- IC50 [5]: 3.83 nM
- IC50 [6]: 0.36 nM
B18: E9.10E (antibody, V domains shown)
VH: B1 VH with S30N, S32G, S33N, Y54S, Y100E, S103M, L104Y, S107G, S108G, H110S
VL: B2 VL with S26G, K52E, G92S, T94A

- binding result [3]: no binding
- Kd [4]: 0.72 nM
- koff [4]: 3.16e-05 s⁻¹
- kon [4]: 44000 M⁻¹ s⁻¹
B19: A10.L45 (antibody, V domains shown)
VH: EVQLVESGGGLVKSGGSLRLSCAASGFTFRSHWMSWVRQAPGKGLEWVAIISYDGSNKYSADSVKGRFTISRDNSKNTLYLQLNSLRAEDTAVYYCAKAGGGNVGFDIWGQGTMVTVSS
VL: SYELTQPPSVSVSPGQTASITCSADELGTQYVSWYQQKPGQSPVLVIYQDATRPSGIPERFSGSNSGNTATLTISGTQAMDEADYYCQAWDRSGVVFGGGTKLTVL

- binding result [3]: no binding
- Kd [4]: 7.69 nM
- koff [4]: 0.000274 s⁻¹
- kon [4]: 35700 M⁻¹ s⁻¹
B20: A10.K30 (antibody, V domains shown)
VH: B19 VH with L11V, K13Q, S14P, R30G, S31N, I50D, Y53S, S56R, N57Y, S60Y
VL: B19 VL with E26K, Q30K, T52K, A79T, Y86L, A89S, G94D

- binding result [3]: no binding
- Kd [4]: 4.06 nM
- koff [4]: 0.000406 s⁻¹
- kon [4]: 100000 M⁻¹ s⁻¹
B21: A10.K42 (antibody, V domains shown)
VH: B19 VH with K13Q, S14P, R30Q, I50M, S56T, N57I, S60Y
VL: B19 VL with E26K, Q30K, T52K, A79T, Y86L, A89S, G94D

- binding result [3]: no binding
- Kd [4]: 0.19 nM
- koff [4]: 9.5e-06 s⁻¹
- kon [4]: 50700 M⁻¹ s⁻¹
B22: A10.L73 (antibody, V domains shown)
VH: B19 VH
VL: B19 VL with A24G, E26N, T29S, T52Q

Reference: patent publication US20200255508A1 (AbbVie / Abbott, published 2020)
